The target of the test is ectodomain of CD147 (CD147^ECT, residues 22-205), wild type (human) (UniProt P35613).

As for “ectodomain of CD147 (CD147^ECT, residues 22-205), wild type (from UniProt P35613-2 22-205) (domain or fragment)”, the MMP-2 production of fibroblasts co-cultured with K7721-WT cells (full-length WT CD147 on cells) treated with different concentrations of Cu2+ up to 30 uM, gelatin zymography came to 2.2 fold.

These data come from publication PMC5584238.
